Measured values reported in the DeepSol protein solubility set.

assay: soluble on expression in E. coli; label from the status in PepcDB or PDB records

Sequence	soluble on expression in E. coli
MQDIWRLPATELADLVRSRRVSAREVAEAALHRLDAVNPAINAVVDHKADDALTQADAVDAAFAKGETPGVLAGVPVTVKVNVDQQGFATTNGVTLQRDWIAKTNNPVVDNLRKAGAVIIGRTNTPAFSYRWFTSNKLHGETLNPRDPSITPGGSSGGAAAAVAAGIGAIAHGTDIAGSVRYPAYACGVHGLRPTIGRVAAFNASSPERPICPQISAVSGPLARTIADVRLGLQALAQPDARDPWWVPAPLDGPPRDKRAALCIAPDDLAVVRAVRDALKDAARRLEAAGWVVDEIASTPPLREAAELQAQFWLGDGYQAMLDAAEREGDEGALACLHGNRDKAIGDLASYSKLLTRRATLTRDWQTFFETYAVLLTPVCGELPFPQRLDLKDEESFKRVWAAQMPQVGLPFMGLPALTVSTGMVGRVPVGVQVVSGRYREDLCLLAGEAIEA	not soluble
MGHHHHHHSHMEKCSVGGLELTEQTPALLGNMAMATSLMDIGDSFGHPACPLVSRSRNSPVEDDDDDDDVVFIESIQPPSISAPAIADQRNFIFASSKNEKPQGNYSVIPPSSRDLASQKGNISETIVIDDEEDVETNGGAEKKSSFFIEWGLPGTKNKTNDLDFSTSSLSRSKTKTGVRPFNPGRMNVAGDLFQNGEFATHHSPEMHLQRRLMSFFQ	not soluble
RTLELAFSSEAAEVQTRSGVEILGHRINEVRMHRLDNGAALLLDHNPREHIGVVESASIDSDHRGRAIVRFGRSPRAEEILRDVLDGIRKHVSVGYLVHQVEVIGQRDAGPLYRATDWEPIEISIVSIPADPSVGIGRALENLPQD	not soluble
MASKRALVILAKGAEEMETVIPVDVMRRAGIKVTVAGLAGKDPVQCSRDVVICPDASLEDAKKEGPYDVVVLPGGNLGAQNLSESAAVKEILKEQENRKGLIAAICAGPTALLAHEIGFGSKVTTHPLARDKMMNGGHYTYSENRVEKDGLILTSRGPGTSFEFALAIVEALNGKEVAAQVKAPLVLKDLEHHHHHH	soluble
MSLDTPRIILHNSDTAPLTHWLRAAFPQADFRECNSYEALPALIEGYRPEVVYSVRFAGTPGFPRDALFGPGGPRWIANGGAGTDHYGQWDPGQTTVTNTAGVAAEMMAEYILGGFLHFSLDVPGLQKDKAARVWNARTVRPLAGKTLLIIGLGHTGRAVAARSKAFGMKVLGTRARPKPMENVDEVHAADDLHDLLPHADFIAVSTPLIPATRGLIGAQEIAAMKSGVIFADVSRGGVVDQTALYDALSVGHVAAAALDVFETEPLPEISPLWALENVIISPHCSSVFAEWEEASFELFLQNLGRWMRGEGHHHHHH	not soluble
MIAPRLVSIIIPTLNEEDAIAPTLRQARRQEGPVEILVADGGSTDDTRSVAQARGATVLQAPRGRAPQMNHGADCSSGDILLFLHADTRLPPNGLSRIRRALAAPDAIAGTFRLRFDDPTPLLRFYAWCTRWPWIRLCFGDRGQFVERSAFEAVGGFPDWPLFEDLELAARLQGHGRFRFLDAAVTTSARRFRRHGPLRQQLLNLYLWGHYLWGTDPDLLASLYPDRLGPVDQQPRSLEHHHHHH	soluble
MGSSHHHHHHSSGLVPRGSHMLELRLVQGSLLKKVLESIKDLVNDANFDCSSTGFSLQAMDSSHVALVSLLLRSEGFEHYRCDRNLSMGMNLGNMSKMLKCAGNDDIITIKADDGGDTVTFMFESPTQDKIADFEMKLMDIDSEHLGIPDAEYHSIVRMPSNEFSRICKDLSSIGDTVVISVTKEGVKFSTAGDIGTANIVLRQNTTVDKPEDAIVIEMKEPVSLSFALRYMNSFTKATPLSDTVTISLSSELPVVVEYKVAEMGYIRYYLAPKIE	soluble
MGSDKIHHHHHHMKEKLRLYHTNDLHSHFENWPKIVDYIEQKRKEHQSDGEETLVFDIGDHLDRFQFVTEATFGKANVDLLNRLHIDGAAIGNNEGITLPHEELAALYDHAEFPVIVSNLFDKNGNRPSWAVPYHIKSLKNGMSIAFLGVTVPYYPVYDKLGWTVTDALESIKETILEVKGQADIIVLLSHLGILDDQAVAEAVPEIDVILESHTHHLLEDGQVVNGVLLASAEKYGHYVGCVEITVDSVQRSINSKTASVQNMAEWTGESAETKAFLNEKEREAEEKLSDAVAELAQDAEVKWFEESELPLLLAYALKEWCETDISMVNSGVILGPLKAGPVTKLDLHRICPHPINPVAVRLTGEELKETIVHAASEQMEQLRIKGLGFRGEVMGKMVYAGVEVETKRLDDGITHVTRITLNGEDIEKHKQYSVAVLDMFTLGKLFPLIRDAAEKEYFMPEFLRDLLAWKLAQ	not soluble
MAPKDITFVERCYKYIDMNKNNWSPYTVTSTKSWVKNYIEPFFKNLKLTEVNPSSVQAFVNYNFNNSTFTSAKVRYSFLSSVIREAYRLREIQENSCDFIKLPLEHHHHHH	soluble
MGSDKIHHHHHHMQWLTFQWLEFIREYREKAKHNLSNSGMPEPDLKSLGIDTSYEHYLDAAGEVEYRFTEALSRRLRVDQDLIIPTVGGTEAIFIALSHLSSVSKRIHVPLPEYEPMFLVPESLGIETSKIESKVMPGRISKNESIAMTLPNNPTAQYSDRISLLDNVIHSEGLIYIDETFRDFLPSGTRPTLFDGSETMVVSGTMTKFYGLSNLRTGWIISSEHNVAGMRRIKDLTSINNASFSLYIAAQAIQKWNYFKEAEDNLINKNLRVAREYLEGLPGISYKEPEGAPFIFLSYSKNIESVKLAKLAVERYGILFAPGSFFGEEHHIRVCLTSNKPEEDFNVLKEFLKKEAV	not soluble
MSLGTFPAGVSADSVFVGLTIPLTGVFSGDGGDLKLGYELAIAQINAGSDIAQKWGLKGKGVLGRQIRHKVSDTEGKPNLDVQSATQFIQRDKAIMVSGSVSSSSAIALEELGSREKVLYMVGIAGSNDITGKNCQRYGFRSQQNAYMAAKGLAPVVAKALGKNIKMAFLVPDYTYGHSVYDSFSKFATEQGWKQVAKEVVPLGTTDYSSALLNIANSGADVFVNIAFGADSVASTKQAEQFGVLKRMKLVVPNLSSFQDKELGAELMQGVYGSCDFWFGLQDKFPLAKAFVDSFVAQNNYHPRWGAHIGYMQTYLWAMSVERANTFNPVDVIKVMENSKAQPYVTTIGNVYFRAEDHQMVRPIPILRGKKPSEMKHKEDFYDIIDLVDGEAVMNPPDLFGCKLGPYTEGHHHHHH	soluble
MKFKYGATLFSGFLGLSAILAACGAKGKFDQVDDGKIVLASSLTSKNAANALQAVVEKYNQVKGGNDYPIEITQITGGYDGGRGNLQTKLSVKDKTTFYNLI	soluble
MIEIKRIQQQPDLAQAIYAVMAAVYLVSPWTLEQIQADLSQDQTWYALAYDGAEVIGFLAVQENLFEAEVLQIAVKGAYQGQGIASALFAQLPTDKEIFLEVRQSNQRAQAFYKKEKMTVIAERKAYYHDPVEDAIIMKREIDEG	soluble
MVLSRHVIITPCPDRPGTSILFSAKRGALILVDDELLAAIGAGGLDADEEQTLAELGFLVPDHDSEQQEMCSFVDESNRASRSFAALIILNLSCNLACSYCFEGNRRGAHFMDDDTADRLVAYLVSGPVAEGRSLSLRFYGGEPLLSVPTIRRIARPLKKVMDARGLSFSFSLTTNGTLLTRELVEELIPLGLVGATVTLDGPPDIHDAARPFVGGEGSFSVIFANLKAVADLIALEIGGNFTPETYREYPRLFDLLVAEGLGPERLALVRFNAVMSAGENRALPEFTGGCASVNEPWLKDATLFIREELLRRGFPAPGLSPHYCAIEAEDSLIVNHDGTFYRCPAFIGIEGLAAGSLDDGLSDHAASHGLGAWKNEECLSCAYLPLCFGGCRYYGYLEHGRIDRVSCGRDLFDAIVGPFLALEVKYRHQPGEDASDTDGDSD	not soluble
MRILQLILLALATGLVGGETRIIKGFECKPHSQPWQAALFEKTRLLCGATLIAPRWLLTAAHCLKPRYIVHLGQHNLQKEEGCEQTRTATESFPHPGFNNSLPNKDHRNDIMLVKMASPVSITWAVRPLTLSSRCVTAGTSCLISGWGSTSSPQLRLPHTLRCANITIIEHQKCENAYPGNITDTMVCASVQEGGKDSCQGDSGGPLVCNQSLQGIISWGQDPCAITRKPGVYTKVCKYVDWIQETMKNN	soluble
MSGRLTGKVALVSGGARGMGASHVRAMVAEGAKVVFGDILDEEGKAMAAELADAARYVHLDVTQPAQWKAAVDTAVTAFGGLHVLVNNAGILNIGTIEDYALTEWQRILDVNLTGVFLGIRAVVKPMKEAGRGSIINISSIEGLAGTVACHGYTATKFAVRGLTKSTALELGPSGIRVNSIHPGLVKTPMTDWVPEDIFQTALGRAAEPVEVSNLVVYLASDESSYSTGAEFVVDGGTVAGLAHNDFGAVEVSSQPEWVT	soluble
GAMASSVLVTQEPEIELPREPRPNEECLQILGNAEKGAKFLSDAEIIQLVNAKHIPAYKLETLIETHERGVSIRRQLLSKKLSEPSSLQYLPYRDYNYSLVMGACCENVIGYMPIPVGVAGPLCLDEKEFQVPMATTEGCLVASTNRGCRAIGLGGGASSRVLADGMTRGPVVRLPRACDSAEVKAWLETSEGFAVIKEAFDSTSRFARLQKLHTSIAGRNLYIRFQSRSGDAMGMNMISKGTEKALSKLHEYFPEMQILAVSGNYCTDKKPAAINWIEGRGKSVVCEAVIPAKVVREVLKTTTEAMIEVNINKNLVGSAMAGSIGGYNAHAANIVTAIYIACGQDAAQNVGSSNCITLMEASGPTNEDLYISCTMPSIEIGTVGGGTNLLPQQACLQMLGVQGACKDNPGENARQLARIVCGTVMAGELSLMAALAAGHLVKSHMIHNRSKINLQDLQGACTKKTA	soluble
MGSDKIHHHHHHMDLFSAMRIFIRVVERGSMSAAARDLGIGQPAVSERIEKLEAHLGTRLLRRNTRNMSLTQSGNVFYERSKTAVQAAEHALSVNEENQGLQGKIRIAAPYSAGESLLMPALLQLQNEHPELQVDVIFNDRVINPVTEGVDLSLRLGDVSEGFFVARPLGTVRRVLLASPALLAKMGHPDTPDALTDYPFAAVSGVFASNRIQLVASEDQLINVPVNIQFQSTHWRSVLSWLLAGHAIGVLQSPVCRKEIADGALIPLLSHYPIPPFSAWLLHPPAGMMSYETRICASLLEGYIRDLLLEPAG	not soluble
QNLPQGDLMQHGMMAVKAATLSDAEVRQVADQACAESDQQNRIAPANSKYGQRLDKIAKALGDQIDGVPVNYKVYLTEEVNAWAMANGCIRVYSGLMELMSDNEIEGVLGHEMGHVALGHTRKAAQTAYAAAAVRGAAGASKSGALAALSGSQLGELTESLVNAQFSQSQESDADDFSYELLKKRGVNTQGLVTAFEKLAKLGGGDSSMFDSHPGSQARADHIRQRIAADR	not soluble
MIDHAHLRLFQFCDSQFPTGAFSHSFGLETYIQRDTVHDEESFQQWLVLFLNEQLTYADGLTMRLVYDALNENDTKAILKLDRILFVQNLPKETRQGSKQMGNRMVKLASELYDSDWINWYHAQMKDKKASLHPAICFTMLGHHLGVDIETIIDYYLYQNVSSLTQNAVRAIPLGQTAGQRIVHKMIPIMKETRDHIMTIPASQLGITAPGLEINQMEHENVNVRIFISLEHHHHHH	not soluble
IRTHLNLPSDKKVIMYAPTWRDDEFVSKGKYLFELKIDLDNLYKELGDDYVILLRMHYLISNALDLSGYENFAIDVSNYNDVSELFLISDCLITDYSSVMFDYGILKRPQFFFAYDIDKYDKGLRGFYMNYMEDLPGPIYTEPYGLAKELKNLDKVQQQYQEKIDAFYDRFCSVDNGKASQYIGDLIHK	not soluble
